Test results: the RNAGym collection of RNA variant scans (doi:10.7554/elife.90254)

B1: OR4K15 (parent)
chain: GUUAACGGUCAUAGGCCAUGGAAACUAGGAGCACCAUUUCGCUGCCAGUGAAGAAAUGAACAAAGAAAAUCUGGGCCAGGCAGGCAUCAAAAGAAAUAGUCUUGCGCUCAACCAGAAAGUCUGUAAUCAUUUUAAGGGUA

Variants of: B1
Test: self-cleavage, relative activity (ratio to wild type); higher = more cleavage; in vitro, sequencing; the parent is a self-cleaving ribozyme

Variant | self-cleavage
GUUAGCGGUCAUAGGCCAUGGAAACUAGGAGCACCAUUUCGCUGCCAGUGAAGAAAUGAACAAAGAAAGUCUGGGCCAGGCAGGCAUCAAAAGAAAUAGUCUUGCGCUCAACCAGAAAGUCUGUAAUCAUUUUAAGGGUA | 1.54
GUUAGCGGUCAUAGGCCAUGGAAACUAGGAGCACCAUUUCGCUGCCAGUGAAGAAAUGAACAAAGAAAAUCUGGGCCAGGCAGGCAUCAAAGGAAAUAGUCUUGCGCUCAACCAGAAAGUCUGUAAUCAUUUUAAGGGUA | 0.53
GUUAGCGGUCAUAGGCCAUGGAAACUAGGAGCACCAUUUCGCUGCCAGUGAAGAAAUGAACAAAGAAAAUCUGGGCCAGGCAGGCAUCAAGAGAAAUAGUCUUGCGCUCAACCAGAAAGUCUGUAAUCAUUUUAAGGGUA | 0.47
GUUAGCGGUCAUAGGCCAUGGAAACUAGGAGCACCAUUUCGCUGCCAGUGAAGAAAUGAACAUAGAAAAUCUGGGCCAGGCAGGCAUCAAAAGAAAUAGUCUUGCGCUCAACCAGAAAGUCUGUAAUCAUUUUAAGGGUA | 1.35
GUUAGCGGUCAUAGGCCAUGGAAACUAGGAGCACCAUUUCGCUGCCAGUGAAGAAAUGAUCAAAGAAAAUCUGGGCCAGGCAGGCAUCAAAAGAAAUAGUCUUGCGCUCAACCAGAAAGUCUGUAAUCAUUUUAAGGGUA | 1.08
GUUAGCGGUCAUAGGCCAUGGAAACUAGGAGCACCAUUUCGCUGCCAGUGAAGAAAUGAGCAAAGAAAAUCUGGGCCAGGCAGGCAUCAAAAGAAAUAGUCUUGCGCUCAACCAGAAAGUCUGUAAUCAUUUUAAGGGUA | 1.08
GUUAGCGGUCAUAGGCCAUGGAAACUAGGAGCACCAUUUCGCUGCCAGUGAAGAAAUGAACAAUGAAAAUCUGGGCCAGGCAGGCAUCAAAAGAAAUAGUCUUGCGCUCAACCAGAAAGUCUGUAAUCAUUUUAAGGGUA | 1.85
GUUAGCGGUCAUAGGCCAUGGAAACUAGGAGCACCAUUUCGCUGCCAGUGAAGAAAUGAACAAGGAAAAUCUGGGCCAGGCAGGCAUCAAAAGAAAUAGUCUUGCGCUCAACCAGAAAGUCUGUAAUCAUUUUAAGGGUA | 1.16
GUUAGCGGUCAUAGGCCAUGGAAACUAGGAGCACCAUUUCGCUGCCAGUGAAGAAUUGAACAAAGAAAAUCUGGGCCAGGCAGGCAUCAAAAGAAAUAGUCUUGCGCUCAACCAGAAAGUCUGUAAUCAUUUUAAGGGUA | 1.18
GUUAGCGGUCAUAGGCCAUGGAAACUAGGAGCACCAUUUCGCUGCCAGUGAAGAAAUGAACAAAGAAAAUCUGGGCCAGGCAGGCAUCAAAAGAGAUAGUCUUGCGCUCAACCAGAAAGUCUGUAAUCAUUUUAAGGGUA | 1.27
GUUAGCGGUCAUAGGCCAUGGAAACUAGGAGCACCAUUUCGCUGCCAGUGAAGAAAUGAACAAAGAAAAUCUGGGCCAGGCAGGCAUCAAAAGAAAUAGUCUUGCGCUCAACCAGGAAGUCUGUAAUCAUUUUAAGGGUA | 0.47
GUUAGCGGUCAUAGGCCAUGGAAACUAGGAGCACCAUUUCGCUGCCAGUGAAGAAAUGGACAAAGAAAAUCUGGGCCAGGCAGGCAUCAAAAGAAAUAGUCUUGCGCUCAACCAGAAAGUCUGUAAUCAUUUUAAGGGUA | 0.99
GUUAGCGGUCAUAGGCCAUGGAAACUAGGAGCACCAUUUCGCUGCCAGUGAAGAAAUGAACAAAGAAAAUCUGGGCCAGGCUGGCAUCAAAAGAAAUAGUCUUGCGCUCAACCAGAAAGUCUGUAAUCAUUUUAAGGGUA | 0.41
GUUAGCGGUCAUAGGCCAUGGAAACUAGGAGCACCAUUUCGCUGCCAGUGAAGAAAUGAACAAAGAAAAUCUGGGCCAGGCGGGCAUCAAAAGAAAUAGUCUUGCGCUCAACCAGAAAGUCUGUAAUCAUUUUAAGGGUA | 0.68
GUUAGCGGUCAUAGGCCAUGGAAACUAGGAGCACCAUUUCGCUGCCAGUGAAGAAAUGAACAAAGAAAAUCUGGGCCCGGCAGGCAUCAAAAGAAAUAGUCUUGCGCUCAACCAGAAAGUCUGUAAUCAUUUUAAGGGUA | 0.62
GUUAGCGGUCAUAGGCCAUGGAAACUAGGAGCACCAUUUCGCUGCCAGUGAAGAAAUGAACAAAGAAAAUCUGGGCCAGGCAGGCAUCAAAAGAAAUAGUCUUGCGCUCAACCUGAAAGUCUGUAAUCAUUUUAAGGGUA | 0.04
GUUAGCGGUCAUAGGCCAUGGAAACUAGGAGCACCAUUUCGCUGCCAGUGAAGAAAUGAACAAAGAAAAUCUGGGCCAGGCAGGCAUCAAAAGAAAUAGUCUUGCGCUCAACCGGAAAGUCUGUAAUCAUUUUAAGGGUA | 0.41
GUUAGCGGUCAUAGGCCAUGGAAACUAGGAGCACCAUUUCGCUGCCAGUGAAGAAAUGAACAAAGAAAAUCUGGGCCAGGCAGGCAUCAAAAGAAAUGGUCUUGCGCUCAACCAGAAAGUCUGUAAUCAUUUUAAGGGUA | 0.7
GUUAGCGGUCAUAGGCCAUGGAAACUAGGAGCACCAUUUCGCUGCCAGUGAAGAAAUGAACUAAGAAAAUCUGGGCCAGGCAGGCAUCAAAAGAAAUAGUCUUGCGCUCAACCAGAAAGUCUGUAAUCAUUUUAAGGGUA | 1.09
GUUAGCGGUCAUAGGCCAUGGAAACUAGGAGCACCAUUUCGCUGCCAGUGAAGAAAUGAACAAAGAACAUCUGGGCCAGGCAGGCAUCAAAAGAAAUAGUCUUGCGCUCAACCAGAAAGUCUGUAAUCAUUUUAAGGGUA | 1.03
GUUAGCGGUCAUAGGCCAUGGAAACUAGGAGCACCAUUUCGCUGCCAGUGAAGAAAUGAACAAAGAAUAUCUGGGCCAGGCAGGCAUCAAAAGAAAUAGUCUUGCGCUCAACCAGAAAGUCUGUAAUCAUUUUAAGGGUA | 0.85
